{"source": "paper PMC6602295", "about": "“Structural mechanism for guanylate-binding proteins (GBPs) targeting by the Shigella E3 ligase IpaH9.8” (PLoS Pathogens, 2019)", "molecular_target": "T1, GBP1^LG-MD (LG-MD region of guanylate-binding protein 1, residues 1-479) (human, UniProt P32455 1-479)", "T1 construct": "also called C-terminally truncated GBP1; source: E. coli BL21(DE3), purified (Ni-NTA, ULP1 cleavage, second Ni-NTA, Superdex 200); not shown: His6-SUMO, N-terminal, cleaved", "T1 sequence": "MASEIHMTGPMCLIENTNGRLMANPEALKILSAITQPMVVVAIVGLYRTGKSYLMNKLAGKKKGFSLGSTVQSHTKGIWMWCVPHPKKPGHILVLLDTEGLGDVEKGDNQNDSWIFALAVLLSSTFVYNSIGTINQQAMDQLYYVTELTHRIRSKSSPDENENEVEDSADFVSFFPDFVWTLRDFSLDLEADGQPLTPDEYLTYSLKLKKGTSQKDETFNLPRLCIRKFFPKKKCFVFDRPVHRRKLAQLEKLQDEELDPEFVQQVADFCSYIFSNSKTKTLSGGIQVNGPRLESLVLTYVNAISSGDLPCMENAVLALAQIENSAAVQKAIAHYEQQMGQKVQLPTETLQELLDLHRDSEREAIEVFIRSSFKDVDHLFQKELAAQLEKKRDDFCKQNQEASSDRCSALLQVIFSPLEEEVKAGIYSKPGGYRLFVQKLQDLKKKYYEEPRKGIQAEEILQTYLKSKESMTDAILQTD", "assay": "crystal structure; purified IpaH9.8^LRR and GBP1^LG-MD incubated overnight on ice at a 1.5:1 molar ratio, passed through Superdex 200 (25 mM Tris-HCl pH 8.0, 20 mM NaCl, 2 mM DTT), no nucleotide; crystals at 20°C in 1.6 M sodium/potassium phosphate pH 6.5; 3.6 Å", "conditions": "both partners purified", "data": [{"binder": "IpaH9.8^LRR (Leucine-rich repeat domain of IpaH9.8, residues 22-252) (domain or fragment, E3 ubiquitin ligase IpaH9.8, Shigella flexneri, LRR domain, residues 22-252; source: E. coli BL21(DE3), purified (Ni-NTA, ULP1 cleavage, second Ni-NTA, Superdex 200); not shown: His6-SUMO, N-terminal, cleaved) TYADYFSAWDKWEKQALPGEERDEAVSRLKECLINNSDELRLDRLNLSSLPDNLPAQITLLNVSYNQLTNLPELPVTLKKLYSASNKLSELPVLPPALESLQVQHNELENLPALPDSLLTMNISYNEIVSLPSLPQALKNLRATRNFLTELPAFSEGNNPVVREYFFDRNQISHIPESILNLRNECSIHISDNPLSSHALPALQRLTSSPDYHGPRIYFSMSDGQQNTLHR", "values": [{"measurement": "binding result", "value": "binds"}]}]}
